Measured values reported in article doi:10.1101/2021.03.28.437436.
Square brackets hold non-standard residues; d marks the D form. Ends that are not written are not given here. pY = N[C@@H](Cc1ccc(OP(=O)(O)O)cc1)C(=O)O

Columns and labels:
[1] = biological target: Recombinant catalytically inactive S195A thrombin mutant (UniProt P00734); assay: other fluorescence titration
[2] = biological target: N-terminal 6xHis-tag derivative of human α-synuclein (6xHis-αSyn) (human) (UniProt P37840); assay: SPR
[3] = biological target: Nα-fluoresceinated hirugen, [F]-hirugen; assay: other fluorescence titration
[4] = biological target: Human plasma α-thrombin (αT) (human); assay: other fluorescence titration

With “Hirugen (C-terminal peptide 54-65 of hirudin HV1)” the increase of [F]-hirugen fluorescence on displacement [1] was 65%.

With βT-thrombin (βTT) (enzyme) the fold decrease in affinity against S195A [2] was 1.5 fold.

Work on “Recombinant catalytically inactive S195A thrombin mutant (from UniProt P00734) (enzyme)” yielded a Kd [3] of 30 nM and a Kd [2] of 44 nM.

VRPEHPAETE[pY]DSL[pY]PEDDL [Fibrinogen γ’-peptide (C-terminal peptide 408-427 of fibrinogen elongated γ-chain splice variant)] showed a fold decrease in affinity with 20 μM αSyn against no αSyn [4] of 3 fold.
